B1: Trypanosoma brucei hypoxanthine-guanine phosphoribosyltransferase isoform 1 (TBrHGPRT1) (enzyme, UniProt Q07010 1-210, looked up)
chain: MEPACKYDFATSVLFTEAELHTRMRGVAQRIADDYSNCNLKPLENPLVIVSVLKGSFVFTADMVRILGDFGVPTRVEFLRASSYGHDTKSCGRVDVKADGLCDIRGKHVLVLEDILDTALTLREVVDSLKKSEPASIKTLVAIDKPGGRKIPFTAEYVVADVPNVFVVGYGLDYDQSYREVRDVVILKPSVYETWGKELERRKAAGEAKR
notes: hypoxanthine-guanine phosphoribosyltransferase isoform HGPRT1 (cytoplasmic) of Trypanosoma brucei; source: expressed and purified to homogeneity as previously described
B2: human hypoxanthine-guanine phosphoribosyltransferase (human HGPRT) (enzyme)
chain: MATRSPGVVISDDEPGYDLDLFCIPNHYAEDLERVFIPHGLIMDRTERLARDVMKEMGGHHIVALCVLKGGYKFFADLLDYIKALNRNSDRSIPMTVDFIRLKSYCNDQSTGDIKVIGGDDLSTLTGKNVLIVEDIIDTGKTMQTLLSLVRQYNPKMVKVASLLVKRTPRSVGYKPDFVGFEIPDKFVVGYALDYNEYFRDLNHVCVISETGKAKYKA
notes: hypoxanthine-guanine phosphoribosyltransferase, human; source: expressed and purified to homogeneity as previously described

Tests used:
[1] = molecular target: the molecule itself; assay: crystal structure; TbrHGPRT1 (8 mg/mL, 0.3 mM) with inhibitor 4 or 5, 0.2 M MgCl2, 0.1 M Bis-Tris pH 5.0, 20% PEG 3350, hanging drop; oligomer as refined in the asymmetric unit
[2] = molecular target: the molecule itself; assay: crystal structure; human HGPRT (10 mg/mL, 0.4 mM) with inhibitor 1 (0.3 M calcium acetate, 20% PEG 3350) or 5 (0.3 M sodium acetate, 17.5% PEG 3350), hanging drop; oligomer as refined in the asymmetric unit

Protein	stoichiometry N [1]	stoichiometry N [2]
B1	2	–
B2	–	4
